This is an account of results in paper PMC3571656.

The assay has as its target CAX^CK31 (Ca2+/H+ antiporter of Caulobacter sp. K31), purified, lacking tags (Caulobacter sp. K31). The assay is described as follows: SEC-MALS.

In turn, “CAX^CK31 (Ca2+/H+ antiporter of Caulobacter sp. K31), purified, lacking tags (natural protein)” displayed a stoichiometry N of 2.
